Columns and labels:
[1] = target: T1, A78R; test: SPR, ProteOn XPR36, 25 C; mAb captured on anti-Fc surface, ST2L-D1D2 (HH-ST2L) variant injected; 1:1 model
T1 construct: also called HH-ST2L (ST2L-D1D2) variant A78R
T1 receptor fragment (Domains I and II): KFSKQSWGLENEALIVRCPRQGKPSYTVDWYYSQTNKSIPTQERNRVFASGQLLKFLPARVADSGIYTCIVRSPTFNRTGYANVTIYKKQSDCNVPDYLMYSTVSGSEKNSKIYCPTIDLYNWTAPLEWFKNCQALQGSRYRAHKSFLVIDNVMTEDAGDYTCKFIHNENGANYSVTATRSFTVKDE
Method: (§1) Binding studies were performed using the ProteOn XPR36 Protein Interaction Array system (Bio-Rad) (Bravman T, et al. Anal Biochem 358:281-288, 2006). […] Individual anti-ST2L mAb was then captured by flowing (1 μg/mL) antibody solution prepared in PBS containing 0.5% Nonidet P-40 and 0.5% Na-deoxycholate). The signal in the surfaces reached ˜250 resonance units (RU, 1 RU=1 pg protein/mm²) in the anti-Fc-coated surfaces, confirming that these antibodies specifically capture anti-ST2L mAbs. After 90° rotation of the fluid system, wild type of ST2L-D1D2 or variant proteins (0.5 mg/mL in PBS containing 0.5% Nonidet P-40 and 0.5% Na-deoxycholate) was injected in the parallel flow channels. All of these assays were performed at 25° C. The ST2L-D1D2-dependent signals on the surfaces were obtained by double referencing, subtracting the response observed on surfaces immobilizing the antibodies alone, and the signal observed injecting the vehicle alone (which allows correction for binding-independent responses). The resulting sensorgrams were fitted by the simplest 1:1 interaction model (ProteOn analysis software), to obtain the corresponding association and dissociation rate constants (kₐ and kd).

[2] = target: T2, K55E; test: as above
T2 construct: also called HH-ST2L (ST2L-D1D2) variant K55E
T2 receptor fragment (Domains I and II): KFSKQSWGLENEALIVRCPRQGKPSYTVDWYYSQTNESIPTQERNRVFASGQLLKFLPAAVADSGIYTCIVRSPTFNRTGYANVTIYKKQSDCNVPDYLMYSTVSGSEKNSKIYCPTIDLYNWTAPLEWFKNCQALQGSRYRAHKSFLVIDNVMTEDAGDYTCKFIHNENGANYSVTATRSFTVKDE
Method: as §1

[3] = target: T3, A80E; test: as above
T3 construct: also called HH-ST2L (ST2L-D1D2) variant A80E
T3 receptor fragment (Domains I and II): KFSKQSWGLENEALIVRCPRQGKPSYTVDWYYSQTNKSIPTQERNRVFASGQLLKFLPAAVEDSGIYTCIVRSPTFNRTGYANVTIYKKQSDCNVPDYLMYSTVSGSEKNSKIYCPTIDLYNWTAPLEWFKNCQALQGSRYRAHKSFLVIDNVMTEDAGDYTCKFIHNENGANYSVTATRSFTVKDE
Method: as §1

[4] = target: T4, human ST2L extracellular domain with C-terminal His6 tag (human, UniProt Q01638 19-328); test: SPR, mAb captured, ST2L-ECD in solution
T4 construct: also called huST2L-ECD; ST2L-ECD
T4 sequence: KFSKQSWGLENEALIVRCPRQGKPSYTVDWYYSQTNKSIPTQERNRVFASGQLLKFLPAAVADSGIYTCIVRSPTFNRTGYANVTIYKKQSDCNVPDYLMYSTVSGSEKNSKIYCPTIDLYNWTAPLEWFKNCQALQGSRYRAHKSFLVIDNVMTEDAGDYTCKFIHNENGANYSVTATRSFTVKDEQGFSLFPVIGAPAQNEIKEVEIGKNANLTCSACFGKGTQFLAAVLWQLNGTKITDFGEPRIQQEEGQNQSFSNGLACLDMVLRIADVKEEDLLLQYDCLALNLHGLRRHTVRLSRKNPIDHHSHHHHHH

[5] = target: T5, cynomolgus (Macaca fascicularis) ST2L extracellular domain with C-terminal His6 tag (Macaca fascicularis (cynomolgus), UniProt Q01638 19-321 (human entry)); test: SPR, mAb captured, ST2L-ECD in solution
T5 construct: also called cyno ST2L-ECD; cynoST2L-ECD
T5 chain: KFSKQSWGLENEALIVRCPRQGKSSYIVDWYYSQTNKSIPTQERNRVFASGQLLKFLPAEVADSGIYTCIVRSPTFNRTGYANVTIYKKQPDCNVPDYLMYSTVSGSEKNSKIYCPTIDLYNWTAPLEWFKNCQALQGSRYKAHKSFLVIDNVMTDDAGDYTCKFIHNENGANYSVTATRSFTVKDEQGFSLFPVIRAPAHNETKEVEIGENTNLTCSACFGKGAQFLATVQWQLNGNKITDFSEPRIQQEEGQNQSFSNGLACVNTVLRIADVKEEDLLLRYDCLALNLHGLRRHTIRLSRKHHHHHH

B1: STLM208 (antibody, V domains shown)
VH: EVQLLESGGGLVQPGGSLRLSCAASGFTFSIYDMIWVRQAPGKGLEWVSSIRGEGGGTYYADSVKGRFTISRDNSKNTLYLQMNSLRAEDTAVYYCARDPWSTEGSFFVLDYWGQGTLVTVSS
VL: EIVLTQSPATLSLSPGERATLSCRASQSVDDDLAWYQQKPGQAPRLLIYDASNRATGIPARFSGSGSGTDFTLTISSLEPEDFAVYYCQQYITAPLTFGQGTKVEIK
notes: frameworks VH3-23 / Vk-L6
- Kd [1]: 0.0104 nM
- koff [1]: 0.00013 s⁻¹
- kon [1]: 1.24e+07 M⁻¹ s⁻¹
- Kd [2]: 0.01 nM
- koff [2]: 0.000129 s⁻¹
- kon [2]: 1.26e+07 M⁻¹ s⁻¹
- Kd [3]: 0.011 nM
- koff [3]: 0.000127 s⁻¹
- kon [3]: 1.15e+07 M⁻¹ s⁻¹
- Kd [4]: 0.011 nM
- koff [4]: 6.76e-05 s⁻¹
- kon [4]: 5.97e+06 M⁻¹ s⁻¹
- Kd [5]: 0.005 nM
- koff [5]: 7.02e-05 s⁻¹
- kon [5]: 1.39e+07 M⁻¹ s⁻¹

— patent publication US20170066831A1 (Janssen / Centocor, published 2017)
